This is an account of results in patent US20220061310A1.

The target in the assay is PDGF receptor PDGFRβ on the surface of 293-SL/PR cells (transformed 293T cell line). Kind of assay: cell-based or functional assay.

Substance “recombinant human PDGF B (rhPDGF B) (from UniProt P01127 82-190) (ligand)” registered a bioactivity by luciferase assay in 293-SL/PR reporter cells; PDGF at 30 ng/mL lyophilized with 3 mg/mL collagen (experimental group) of 310000 RLU/sec and a bioactivity by luciferase assay in 293-SL/PR reporter cells; PDGF solution (control group) at 120 ng/mL of 340000 RLU/sec.
